{"source": "paper PMC6509359", "about": "(Molecular Cell, 2019)", "binders": {"B1": {"name": "Human USP25 (157-1055) (domain or fragment, UniProt Q9UHP3 157-1055, looked up)", "chain": "NPYDRKRQDKAPVGLKNVGNTCWFSAVIQSLFNLLEFRRLVLNYKPPSNAQDLPRNQKEHRNLPFMRELRYLFALLVGTKRKYVDPSRAVEILKDAFKSNDSQQQDVSEFTHKLLDWLEDAFQMKAEEETDEEKPKNPMVELFYGRFLAVGVLEGKKFENTEMFGQYPLQVNGFKDLHECLEAAMIEGEIESLHSENSGKSGQEHWFTELPPVLTFELSRFEFNQALGRPEKIHNKLEFPQVLYLDRYMHRNREITRIKREEIKRLKDYLTVLQQRLERYLSYGSGPKRFPLVDVLQYALEFASSKPVCTSPVDDIDASSPPSGSIPSQTLPSTTEQQGALSSELPSTSPSSVAAISSRSVIHKPFTQSRIPPDLPMHPAPRHITEEELSVLESCLHRWRTEIENDTRDLQESISRIHRTIELMYSDKSMIQVPYRLHAVLVHEGQANAGHYWAYIFDHRESRWMKYNDIAVTKSSWEELVRDSFGGYRNASAYCLMYINDKAQFLIQEEFNKETGQPLVGIETLPPDLRDFVEEDNQRFEKELEEWDAQLAQKALQEKLLASQKLRESETSVTTAQAAGDPEYLEQPSRSDFSKHLKEETIQIITKASHEHEDKSPETVLQSAIKLEYARLVKLAQEDTPPETDYRLHHVVVYFIQNQAPKKIIEKTLLEQFGDRNLSFDERCHNIMKVAQAKLEMIKPEEVNLEEYEEWHQDYRKFRETTMYLIIGLENFQRESYIDSLLFLICAYQNNKELLSKGLYRGHDEELISHYRRECLLKLNEQAAELFESGEDREVNNGLIIMNEFIVPFLPLLLVDEMEEKDILAVEDMRNRWCSYLGQEMEPHLQEKLTDFLPKLLDCSMEIKSFHEPPKLPSYSTHELCERFARIMLSLSRTPADGR", "notes": "source: E. coli Rosetta2(DE3)pLacI, purified (HisTrap, 3C protease, Resource Q, size exclusion)"}, "B2": {"name": "Human USP25 (157-720) (domain or fragment, UniProt Q9UHP3 157-720, looked up)", "chain": "NPYDRKRQDKAPVGLKNVGNTCWFSAVIQSLFNLLEFRRLVLNYKPPSNAQDLPRNQKEHRNLPFMRELRYLFALLVGTKRKYVDPSRAVEILKDAFKSNDSQQQDVSEFTHKLLDWLEDAFQMKAEEETDEEKPKNPMVELFYGRFLAVGVLEGKKFENTEMFGQYPLQVNGFKDLHECLEAAMIEGEIESLHSENSGKSGQEHWFTELPPVLTFELSRFEFNQALGRPEKIHNKLEFPQVLYLDRYMHRNREITRIKREEIKRLKDYLTVLQQRLERYLSYGSGPKRFPLVDVLQYALEFASSKPVCTSPVDDIDASSPPSGSIPSQTLPSTTEQQGALSSELPSTSPSSVAAISSRSVIHKPFTQSRIPPDLPMHPAPRHITEEELSVLESCLHRWRTEIENDTRDLQESISRIHRTIELMYSDKSMIQVPYRLHAVLVHEGQANAGHYWAYIFDHRESRWMKYNDIAVTKSSWEELVRDSFGGYRNASAYCLMYINDKAQFLIQEEFNKETGQPLVGIETLPPDLRDFVEEDNQRFEKELEEWDAQLAQKALQEKLLASQ", "notes": "also called USP25 catalytic domain; source: E. coli Rosetta2(DE3)pLacI, purified (HisTrap, 3C protease, Resource Q, size exclusion)"}, "B3": {"name": "M. musculus USP25 (157-715) (domain or fragment, mouse (Mus musculus), UniProt P57080 157-715, looked up)", "chain": "NPYDRKRQEKAPVGLKNVGNTCWFSAVIQSLFNLLEFRRLVLNYKPPSNAQDLPRNQKEHRNLPFMRELRYLFALLVGTKRKYVDPSRAVEILKDAFKSNDSQQQDVSEFTHKLLDWLEDAFQMKAEEETDEEKPKNPMVELFYGRFLAMGVLEGKKFENTEMFGQYPLQVNGFKDLHECLEAAMIEGEIESLHSDNSGKSGQEHWFTELPPVLTFELSRFEFNQALGRPEKIHNKLEFPQVLYLDRYMHRNREITRIKREEIKRLKDYLTVLQQRLERYLSYGSGPKRFPLVDVLQYALEFASSKPVCTSPVDDIDASSSASGPLPSQSLPSTTEQQGPCASDLPGSSSPASGAALPLRSVIHKPFTQSRIPPDLPMHPAPRHITEEELCVLESCLHRWRTEIENDTRDLQESISRIHRTIELMYSDKSMIQVPYRLHAVLVHEGQANAGHYWAYIFDHRESRWMKYNDIAVTKSSWEELVRDSFGGYRNASAYCLMYIDDKAQFLIQEEFNKETGQALVGMETLPPDLRDFVEEDNQRFEKELEEWDTQLAQRSLQE", "notes": "also called USP25 catalytic domain from mouse; source: E. coli Rosetta2(DE3)pLacI, purified (HisTrap, 3C protease, Resource Q, size exclusion)"}, "B4": {"name": "Human USP25 (157-Δ(465-535)-714) (domain or fragment)", "chain": "NPYDRKRQDKAPVGLKNVGNTCWFSAVIQSLFNLLEFRRLVLNYKPPSNAQDLPRNQKEHRNLPFMRELRYLFALLVGTKRKYVDPSRAVEILKDAFKSNDSQQQDVSEFTHKLLDWLEDAFQMKAEEETDEEKPKNPMVELFYGRFLAVGVLEGKKFENTEMFGQYPLQVNGFKDLHECLEAAMIEGEIESLHSENSGKSGQEHWFTELPPVLTFELSRFEFNQALGRPEKIHNKLEFPQVLYLDRYMHRNREITRIKREEIKRLKDYLTVLQQRLERYLSYGSGPKRFPLVDVLQYALEFASSKPVGSGSGSAPRHITEEELSVLESCLHRWRTEIENDTRDLQESISRIHRTIELMYSDKSMIQVPYRLHAVLVHEGQANAGHYWAYIFDHRESRWMKYNDIAVTKSSWEELVRDSFGGYRNASAYCLMYINDKAQFLIQEEFNKETGQPLVGIETLPPDLRDFVEEDNQRFEKELEEWDAQLAQKALQE", "notes": "USP25, human, residues 536-714; source: E. coli Rosetta2(DE3)pLacI, purified (HisTrap, 3C protease, Resource Q, size exclusion)"}, "B5": {"name": "Human USP28 (149-703) (domain or fragment, UniProt Q96RU2 149-703, looked up)", "chain": "PNPNDWRRVDGWPVGLKNVGNTCWFSAVIQSLFQLPEFRRLVLSYSLPQNVLENCRSHTEKRNIMFMQELQYLFALMMGSNRKFVDPSAALDLLKGAFRSSEEQQQDVSEFTHKLLDWLEDAFQLAVNVNSPRNKSENPMVQLFYGTFLTEGVREGKPFCNNETFGQYPLQVNGYRNLDECLEGAMVEGDVELLPSDHSVKYGQERWFTKLPPVLTFELSRFEFNQSLGQPEKIHNKLEFPQIIYMDRYMYRSKELIRNKRECIRKLKEEIKILQQKLERYVKYGSGPARFPLPDMLKYVIEFASTKPASESCPPESDTHMTLPLSSVHCSVSDQTSKESTSTESSSQDVESTFSSPEDSLPKSKPLTSSRSSMEMPSQPAPRTVTDEEINFVKTCLQRWRSEIEQDIQDLKTCIASTTQTIEQMYCDPLLRQVPYRLHAVLVHEGQANAGHYWAYIYNQPRQSWLKYNDISVTESSWEEVERDSYGGLRNVSAYCLMYINDKLPYFNAEAAPTESDQMSEVEALSVELKHYIQEDNWRFEQEVEEWEEEQSCKI", "notes": "also called USP28 catalytic domain; source: E. coli Rosetta2(DE3)pLacI, purified (HisTrap, 3C protease, Resource Q, size exclusion)"}, "B6": {"name": "Human USP25 (1-714) (domain or fragment, UniProt Q9UHP3 1-714, looked up)", "chain": "MTVEQNVLQQSAAQKHQQTFLNQLREITGINDTQILQQALKDSNGNLELAVAFLTAKNAKTPQQEETTYYQTALPGNDRYISVGSQADTNVIDLTGDDKDDLQRAIALSLAESNRAFRETGITDEEQAISRVLEASIAENKACLKRTPTEVWRDSRNPYDRKRQDKAPVGLKNVGNTCWFSAVIQSLFNLLEFRRLVLNYKPPSNAQDLPRNQKEHRNLPFMRELRYLFALLVGTKRKYVDPSRAVEILKDAFKSNDSQQQDVSEFTHKLLDWLEDAFQMKAEEETDEEKPKNPMVELFYGRFLAVGVLEGKKFENTEMFGQYPLQVNGFKDLHECLEAAMIEGEIESLHSENSGKSGQEHWFTELPPVLTFELSRFEFNQALGRPEKIHNKLEFPQVLYLDRYMHRNREITRIKREEIKRLKDYLTVLQQRLERYLSYGSGPKRFPLVDVLQYALEFASSKPVCTSPVDDIDASSPPSGSIPSQTLPSTTEQQGALSSELPSTSPSSVAAISSRSVIHKPFTQSRIPPDLPMHPAPRHITEEELSVLESCLHRWRTEIENDTRDLQESISRIHRTIELMYSDKSMIQVPYRLHAVLVHEGQANAGHYWAYIFDHRESRWMKYNDIAVTKSSWEELVRDSFGGYRNASAYCLMYINDKAQFLIQEEFNKETGQPLVGIETLPPDLRDFVEEDNQRFEKELEEWDAQLAQKALQE", "notes": "USP25, human, residues 1-714; tetrameric and dimeric species side by side; source: E. coli Rosetta2(DE3)pLacI, purified (HisTrap, 3C protease, Resource Q, size exclusion)"}}, "key": {"[1]": {"target": "the molecule itself", "assay": "SEC-MALS; five-fold dilution series (1 mg/mL, 0.2 mg/mL, 0.04 mg/mL sample concentration)"}, "[2]": {"target": "T1, ubiquitin-propargylamine, Ub(1-75)-PA (UniProt P0CG48 1-75, C-terminal propargylamine (PA) after residue 75)", "T1 construct": "ubiquitin residues 1-75, C-terminus carries propargylamine (reactive probe); reacts covalently with the DUB; the His6-3C tag was on the probe during the reaction and the HisTrap step and was cut off with 3C protease before gel filtration; also called Ub-PA; His6-3C-Ub(1-75)-PA; source: assembled as described previously (Gersch et al., 2017), > 95% purity by intact protein mass spectrometry; not …", "assay": "covalent reaction with the ubiquitin-propargylamine probe; 1.3 eq of His6-3C-Ub(1-75)-PA, 1–4 h at 4°C; complex purified over HisTrap by the probe's tag, 3C protease, gel filtration", "conditions": "both partners purified"}, "[3]": {"target": "the molecule itself", "assay": "SEC-MALS; 100 μL of 1-2 mg/mL protein on Superdex 200 10/300, 0.5 mL/min, PBS + 2 mM DTT"}, "[4]": {"target": "the molecule itself", "assay": "not stated; oligomeric states of purified orthologs and of full-length proteins, Figures S7A, S7B and S3J"}, "[5]": {"target": "the molecule itself", "assay": "cell-based or functional assay"}, "[6]": {"target": "the molecule itself", "assay": "not stated; oligomeric state of the purified deletion construct, Figure S4F (legend not shown)"}, "[7]": {"target": "the molecule itself", "assay": "SAXS; SEC-SAXS, 45 μL at 3-12 mg/mL, Shodex KW-403, buffer E (20 mM Tris pH 8.0, 100 mM NaCl, 5 mM DTT); compared with curves calculated from the crystal structures"}}, "note": "Values joined by “and” are separate entries in the source; they are usually repeats but may differ in a detail not shown here. Identical values can stand only once.", "data": [{"binder": "B1", "values": [{"measurement": "stoichiometry N", "setting": "[1]", "value": 4}]}, {"binder": "B2", "values": [{"measurement": "binding result", "setting": "[2]", "value": "binds"}, {"measurement": "stoichiometry N", "setting": "[3]", "value": 4}]}, {"binder": "B3", "values": [{"measurement": "binding result", "setting": "[2]", "value": "binds"}, {"measurement": "stoichiometry N", "setting": "[4]", "value": 4}]}, {"binder": "B4", "values": [{"measurement": "Ub-KG-TAMRA cleavage activity against the tetrameric wild-type USP25 (157-714)", "setting": "[5]", "value": 6, "unit": "fold"}, {"measurement": "stoichiometry N", "setting": "[6]", "value": 2}]}, {"binder": "B5", "values": [{"measurement": "stoichiometry N", "setting": "[7]", "value": 2}]}, {"binder": "B6", "values": [{"measurement": "stoichiometry N", "setting": "[1]", "value": "4 and 2"}]}]}
